The source of these data is publication PMC4906244.

This data set concerns His6-ComPsub (Neisseria subflava NJ9703), PDB:2NBA_1. Kind of data set: SPR. As to conditions: DNA immobilized on neutravidin chip; EMSA: 20 mM Tris-Cl pH 8, 50 mM NaCl, 2.5 mM Mg2+, ambient temperature; SPR: 20 mM Tris pH 8, 150 mM NaCl, 0.05% Tween 20, 25 C; NMR: 50 mM sodium phosphate pH ….

Regarding “TGACCAGGCCGTCTGAACAAAC (double strand) [DUSvar1 ds primer (biotinylated)]”, the dissociation constant (Kd) turned out to be 52.7 µM.
